Where a chain is given by its changes, count along the chain named.
T1: cyno IL-5 with his-tag (cyno (paragraph 156 says rhesus), UniProt P48093 20-134 (rhesus entry))
T1 construct: also called rhesus IL-5 with His-tag; monkey IL-5
T1 sequence: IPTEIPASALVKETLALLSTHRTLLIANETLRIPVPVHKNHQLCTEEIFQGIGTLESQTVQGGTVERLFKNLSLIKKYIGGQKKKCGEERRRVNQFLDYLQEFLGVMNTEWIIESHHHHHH

T2: human IL-5 with his-tag (rhIL-5-his) (human, UniProt P05113 20-134)
T2 construct: It was expressed in HEK293 and purified from the supernatant; also called HuIL-5; recombinant human IL-5
T2 sequence: T1 sequence with A7T, G80D

B1: mAb1779 (antibody, V domains shown)
VH: QVKLLQSGAALVKPGDSVKMSCKASGYTFTDYIIHWVKQSHGKSLEWIGYFNPNSGGSNYNENFKRKATLTADKSSSTAYLEFSRVTSEDSAIYYCGRRIAWDHWYFDFWGPGTMVTVSS
VL: DIQMTQSPASLSASLGETVSIECLASEGISNDVAWYQQKSGRSPQLLVYAASRLQDGVPSRFSGSGSGTRYFFKISGMQPEDEADYFCQQGYKTPLTFGSGTKLEIK
notes: Murine hybridoma antibody
B2: mAb1773 (antibody, V domains shown)
VH: EVQLQQSLAELVRPGASVTLSCTASGFNIKNTYIHWVKQRPEQGLEWIGRIDPANGDTKHGPKFQGKATITADTSSNTAYLQFSSLTSEDTAIYYCFRYGIYPDHWGQGTPLTVSS
VL: QIVLTQSPALMSASPGEKVTMTCSASSSVNYIYWYQQKPRSSPKPWIYLTATLASGVPARFSGSGSGTSFSLTISRMEAEDAATYYCQQWNSYPYTFGGGTKLEIE
notes: Murine hybridoma antibody
B3: mAb1780 (antibody, V domains shown)
VH: QVKLLQSGAALVKPGDSVKMSCKASDYTFTEYLIHWVKQSQGRSLEWIGYINPYSGGTVYNEKFKSKATLTVDKFSSTAYMEFRRLTFEDSAIYYCARDGGYSDPLDYWGQGVMVTVSS
VL: DTVLTQSPALAVSPGERVSISCRASEGLTSYMHWYQQKPGQQPKLLIYKASNLASGVPARFSGSGSGTDFTLTIDPVEADDAATYFCQQNWNDPWTFGGGTKLELK
notes: Murine hybridoma antibody
B4: h1779-014 (antibody, human IgG1, kappa, V domains shown)
VH: EVQLVQSGAEVKKPGASVKVSCKASGYTFTDYIIHWVKQAPGQGLEWIGYFNPNSGGSNYNENFKRKATMTADKSISTAYLEFSRLRSEDTAVYYCARRIAWDHWYFDFWGQGTMVTVSS
VL: DIQMTQSPSSLSASVGDRVTITCLASEGISNDVAWYQQKPGKSPKLLVYAASRLQDGVPSRFSGSGSGTDYTFTISSLQPEDIATYYCQQGYKTPLTFGQGTKLEIKR
notes: See recheck
B5: h1780-017 (antibody, human IgG1, kappa, V domains shown)
VH: EVQLVQSGAEVKKPGASVKVSCKASGYTFTEYLIHWVRQAPGQGLEWIGYINPYSGGTVYNEKFKSRATLTVDKSISTAYMEFSRLRSDDTAVYYCARDGGYSDPLDYWGQGTMVTVSS
VL: DTVLTQSPATLSLSPGERATLSCRASEGLTSYMHWYQQKPGQAPRLLIYKASNLASGVPARFSGSGSGTDFTLTISSLEPEDFATYFCQQNWNDPWTFGGGTKVEIKR
B6: Hu39D10 (antibody, human IgG4 S228P, kappa, V domains shown)
VH: EVQLVESGGGLVQPGGSLRLSCAVSGLSLTSNSVNWIRQAPGKGLEWVGLIWSNGDTDYNSAIKSRFTISRDTSKSTVYLQMNSLRAEDTAVYYCAREYYGYFDYWGQGTLVTVSS
VL: DIQMTQSPSSLSASVGDRVTITCLASEGISSYLAWYQQKPGKAPKLLIYGANSLQTGVPSRFSGSGSATDYTLTISSLQPEDFATYYCQQSYKFPNTFGQGTKVEVKR
notes: Anti-IL-5 antibody of WO2012083370A1, used as positive control; also called positive control; positive antibody
B7: h1706-006 (antibody, human IgG1, kappa, V domains shown)
VH: EVQLVESGGGLVQPGGSLRLSCAASGFTFSHYYMAWVRQAPGKGLEWVSSINYEGNSAYYGDSVKGRFTISRDNSKNTLYLQMNSLRAEDTAVYYCATETLRESLDYWGQGTMVTVSS
VL: DIQMTQSPSSVSASVGDRVTITCRASQDIGNYLSWYQQKPGKSPKLLIYSASNLEVGVPSRFSGSGSGTDFTLTISSLQPEDFATYYCLQHKQFPRTFGGGTKVEIKR
notes: Constant regions as for h1706-003
B8: h1705-007 (antibody, human IgG1, kappa, V domains shown)
VH: B7 VH with N52S, N56D, S57I, A58T, T98S, E99Q, L105F, M113L
VL: B7 VL with G30A, S50G, A51T, G66R, H91D, Q93E
B9: h1706-004 (antibody, human IgG1, kappa, V domains shown)
VH: B7 VH with S49T, V93T
VL: B7 VL with S43A
B10: h1706-007 (antibody, human IgG1, kappa, V domains shown)
VH: B7 VH with S49T, V93T
VL: B7 VL
B11: h1705-005 (antibody, human IgG1, kappa, V domains shown)
VH: B7 VH with S49T, N52S, N56D, S57I, A58T, V93T, T98S, E99Q, L105F, M113L
VL: B7 VL with G30A, S43A, S50G, A51T, H91D, Q93E
B12: h1706-003 (antibody, human IgG1, kappa, V domains shown)
VH: B7 VH
VL: B7 VL with S43A
B13: h1705-010 (antibody, human IgG1, kappa, V domains shown)
VH: B7 VH with N52S, N56D, S57I, A58T, T98S, E99Q, L105F, M113L
VL: B7 VL with G30A, L47V, S50G, A51T, G66R, T69S, F71Y, Y87F, H91D, Q93E
B14: h1705-011 (antibody, human IgG1, kappa, V domains shown)
VH: B7 VH with S49T, N52S, N56D, S57I, A58T, V93T, T98S, E99Q, L105F, M113L
VL: B7 VL with G30A, L47V, S50G, A51T, G66R, T69S, F71Y, Y87F, H91D, Q93E
B15: h1705-004 (antibody, human IgG1, kappa, V domains shown)
VH: B7 VH with N52S, N56D, S57I, A58T, T98S, E99Q, L105F, M113L
VL: B7 VL with G30A, S43A, S50G, A51T, H91D, Q93E
B16: h1773-007 (antibody, human IgG1, kappa, V domains shown)
VH: EVQLVESGGGLVQPGGSLKLSCAASGFTISNTYIHWVKQASGKGLEWIGRIDPAVGDTKHGPKFQGRFTISADDSKNTAYLQMNSLKTEDTAVYYCFRYGIYPDHWGQGTLVTVSS
VL: DIQLTQSPSSLSASVGDRVTITCSASSSVNYIYWYQQKPGKSPKPWIYLTATLASGVPSRFSGSGSGTDFTLTISSLQPEDFATYYCQQWNSYPYTFGGGTKVEIKR
B17: h1705-009 (antibody, human IgG1, kappa, V domains shown)
VH: B7 VH with N52S, N56D, S57I, A58T, T98K, E99Q, L105F, M113L
VL: B7 VL with G30A, L47V, S50G, A51T, G66R, T69S, F71Y, Y87F, H91D, Q93E
B18: h1705-006 (antibody, human IgG1, kappa, V domains shown)
VH: B7 VH with N52S, N56D, S57I, A58T, T98K, E99Q, L105F, M113L
VL: B7 VL with G30A, S50G, A51T, G66R, H91D, Q93E
B19: h1705-003 (antibody, human IgG1, kappa, V domains shown)
VH: B7 VH with N52S, N56D, S57I, A58T, T98K, E99Q, L105F, M113L
VL: B7 VL with G30A, S43A, S50G, A51T, H91D, Q93E

target: T1, cyno IL-5 with his-tag; experiment: Biacore T200, antibody captured on protein A chip, antigen in flow, 1:1 Langmuir
Description: (§1) The affinity of the murine IL-5 antibody to be tested with human IL-5 was measured by Biacore T200 (GE) instrument.
(§2) The protein A biosensor chip was used to affinity capture of the molecules to be tested, and then the antigen (recombinant human and cyno IL-5 prepared in Example 1) flowed through the surface of the chip, and the reaction signal was detected in real time with the Biacore T200 instrument to obtain the binding and dissociation curves. After the dissociation of each experimental cycle was completed, the biosensor chip was washed and regenerated with glycine-hydrochloric acid regeneration solution (pH 1.5). BIA evaluation version 4.1 GE software was used to fit the data against (1:1) Langmuir model, and the affinity value was obtained and shown in Table 13.

Row | Kd | Molecule
1 | 9.98 nM | B1
2 | 0.476 nM | B2
3 | 0.312 nM | B3

target: T2, human IL-5 with his-tag (rhIL-5-his); experiment: as above
Description: as §1, §2

Row | Kd | Molecule
4 | 0.458 nM | B1
5 | 0.129 nM | B2
6 | 0.0899 nM | B3

target: T2, human IL-5 with his-tag (rhIL-5-his); experiment: Biacore
Description: as §1, §2

Row | Kd | Molecule
7 | 0.458 nM | B1
8 | 0.129 nM | B2
9 | 0.0899 nM | B3

target: T2, human IL-5 with his-tag (rhIL-5-his); experiment: FACS blocking: biotin-IL-5 (100 ng/ml) binding to IL-5Rα/β-CHOS cells, antibody diluted
Description: Particular method was as follows: CD-CHO comprising […] and […] zeozin was used to culture CHO-S-IL-5Rα and β. During cell culture, the concentration should not exceed 3×10⁶ cells/ml. IL-5Rα/β-CHOS cells in good condition were centrifuged (at 1000 rpm, 5 min), and washed once with 10% FBS in PBS, and the cells were counted, the cell concentration was adjusted to 4×10⁶ cells/ml, and 25 μl was taken out and added into a round-bottom 96-well plate. The antibody to be tested was diluted with PBS solution comprising 10% FBS. The initial concentration was 200 μg/ml, and diluted at 1:10 for 8 gradient dilutions. 25 μl of 100 ng/ml IL-5 labeled by a biotin labeling kit (Tojin Chemical, LK03) was added, and fully mixed with 50 μl of diluted antibody at each concentration, and added into 96-well plate that has been added with cells, and incubated at 4° C. for 1 hour. After the incubation, the sample was centrifuged at 4° C. (400 g, 5 min), and the supernatant was removed, the plated was washed with 200 μl of pre-cooled PBS by centrifugation, repeated for twice; PE-Avidin secondary antibody diluted at 1:1333 was added and incubated in the dark at 4° C. for 40 min, centrifuged at 4° C.

Row | IC50 | Molecule
10 | 8.78 µg/mL | IgG (antibody)
11 | 0.0496 µg/mL | B4
12 | 0.016 µg/mL | B5
13 | 0.0251 µg/mL | B6

target: T2, human IL-5 with his-tag (rhIL-5-his); experiment: cell-based or functional assay

Row | IC50 of blocking IL-5 induced eosinophil adhesion | Molecule
14 | 21.2 ng/mL | B5
15 | 11.8 ng/mL | B6

target: T2, human IL-5 with his-tag (rhIL-5-his); experiment: cell-based or functional assay; remark: another data set of the same source

Row | IC50 of inhibition of IL-5 induced TF1 cell proliferation | Molecule
16 | 0.2 nM | B4
17 | 0.34 nM | B7
18 | 0.25 nM | B8
19 | 0.3 nM | B9
20 | 0.28 nM | B10
21 | 0.3 nM | B11
22 | 0.31 nM | B12
23 | 0.3 nM | B13
24 | 0.28 nM | B14
25 | 0.3 nM | B15
26 | 0.16 nM | B5
27 | 0.3 nM | B6
28 | 0.38 nM | B16

target: T2, human IL-5 with his-tag (rhIL-5-his); experiment: Biacore T200, antibody captured on protein A chip, antigen in flow, 1:1 Langmuir; remark: another data set of the same source
Description: The affinity of the humanized IL-5 antibody to be tested with human IL-5 was measured by Biacore T200 (GE) instrument.
as §2, with “(prepared” for “(recombinant human and cyno IL-5 prepared”, “14.” for “13.”

Row | Kd | Molecule
29 | 0.412 nM | B4
30 | 0.0173 nM | B7
31 | 0.0221 nM | B8
32 | 4.55 nM | B17
33 | 0.0216 nM | B11
34 | 0.0189 nM | B12
35 | 0.0205 nM | B13
36 | 4.11 nM | B18
37 | 0.023 nM | B14
38 | 0.0214 nM | B15
39 | 3.35 nM | B19
40 | 0.0778 nM | B5
41 | 0.207 nM | B16
